Experimental findings from publication PMC4141209 (FEBS Open Bio, 2014) are described below.

This series concerns the molecule itself. Briefly: SEC.

B1: TlLhpH (trans-3-hydroxy-L-proline dehydratase from Thermococcus litoralis DSM 5473) (enzyme, UniProt H3ZMH8 1-348, looked up)
chain: MFKKLENLEKWEPPKDWMVIKTLDTHTAGEPLRIILSGFPEIPGKTILEKRRYLMENLDHLRKALMWEPRGHADMYGAIITEPVSEEADFGVIFMHNEGYSTMCGHATIALGKVAVECGLVEAKEPITEIKMDSPAGLIKIYVKVRDGKVEKVYFHNVPSFVLFKDETINVPGIGEVKYDLAYGGAFYAFVNAEEIGLKCTPEYYRQLIDVGMKIKRAIMSEKEIRHPFEEDLSFLYGTIFIGEPEDENSHSRHVCIFADGEVDRSPTGTGVSARLAILYEKGEIDIGEEITIESIIGTKFTGKVVEETRYGLYRAIIPEVGGNAYIVAKNTFLIDPQDPLKYGFFLR
One may read the stoichiometry N as the number of molecules, sites or subunits per partner or assembly. Regarding B1, the “stoichiometry N” value came out at 2.
